Source: patent US20190177416A1 (NANOMAB TECHNOLOGY, published 2019)
Numbering of substitutions follows the chain as printed. Blank lines part the entries; values can stand above or below the binder they belong to.

Legend:
[1] = molecular target: T1, human PD-L1 protein (coated antigen) (human, UniProt Q9NZQ7 19-238, limits assumed); assay: PE-ELISA, crude extract on coated PD-L1
T1 construct: Construct not described; also called PD-L1 antigen; antigenic protein PD-L1
Description: (1) From the cell culture dishes containing phage after 3-4 rounds of screening in Example 2, 1000 individual colonies were selected and inoculated into TB medium containing 100 μg/ml of ampicillin (1 liter of TB medium contains 2.3 g of potassium dihydrogen phosphate, 12.52 g of dipotassium hydrogen phosphate, 12 g of peptone, 24 g of yeast extract, 4 ml of glycerol), after growth to log phase, add a final concentration of […] of IPTG, culture at 28° C. overnight. (2) The crude antibody was obtained by the infiltration method, and the antibody was transferred to an antigen-coated ELISA plate and placed at room temperature for 1 hour. (3) Unbound antibody was washed away with PBST, and a mouse anti-HA tag antibody (anti-mouse anti-HA antibody, purchased from Beijing Kangwei Century Biotechnology Co., Ltd.) was added and placed at room temperature for 1 hour. (4) Unbound antibody was washed away with PBST, and anti-mouse alkaline phosphatase conjugate (goat anti-mouse alkaline phosphatase-labeled antibody, purchased from Amytech Co., Ltd.) was added and placed at room temperature for 1 hour. (5) Wash the unbound antibody with PBST, add alkaline phosphatase coloring solution, and read the absorbance at 405 nm on an ELISA apparatus. (6) When the OD value of the sample well is more than 3 times the OD value of the control well (Ratio+/−>3), it is judged as a positive clone hole. (7) The bacteria of the positive clone well were shaken in a LB liquid containing 100 μg per ml to extract a plasmid and perform sequencing.

[2] = molecular target: T1, human PD-L1 protein (coated antigen); assay: ELISA, purified nanobody 10 ug/mL on coated PD-L1, anti-HA detection
Description: (§1) (1) Coated antigenic proteins PD-L1 and PD-L2: 0.5 μg per well (5 μg/mL, 100 μL), packaged NaHCO₃ (100 mM, pH8.2) was used as a blank control and overnight at 4° C. (2) Wash the cells three times with PBST the next day, add 200 μL of 1% BSA to block at room temperature for 2 hours. (3) Each purified nanobody was diluted to 10 μg/mL, and 100 pt of each of the purified nanobodies was incubated with the coated PD-L1, PD-L2 and the blank control group, and reacted at room temperature for 1 hour. (4) Unbound antibody was washed away with PBST, and 100 μL of mouse anti-HA tag antibody (1:2000 dilution) was added and placed at room temperature for 1 hour. (5) Unbound antibody was washed away with PBST, and anti-mouse alkaline phosphatase conjugate (1:2000 dilution) was added and placed at room temperature for 1 hour. (6) Wash the unbound antibody with PBST, add alkaline phosphatase coloring solution, and read the absorbance at 405 nm on an ELISA apparatus. The specificity of the nanobody was judged based on the absorption value.

[3] = molecular target: T2, PD-L2 (coated antigenic protein) (UniProt Q9BQ51 20-220, limits assumed); assay: ELISA, purified nanobody 10 ug/mL on coated PD-L2, anti-HA detection
T2 sequence (looked up): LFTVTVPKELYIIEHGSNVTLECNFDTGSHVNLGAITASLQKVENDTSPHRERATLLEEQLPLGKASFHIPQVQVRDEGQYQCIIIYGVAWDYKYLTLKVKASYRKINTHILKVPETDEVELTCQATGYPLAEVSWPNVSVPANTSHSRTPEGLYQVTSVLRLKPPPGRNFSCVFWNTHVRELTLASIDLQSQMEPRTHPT
Description: as §1

[4] = molecular target: T1, human PD-L1 protein (coated antigen); assay: ELISA, purified nanobody 10 ug/mL, coated PD-L1 against coated PD-L2
Description: as §1

[5] = molecular target: T1, human PD-L1 protein (coated antigen); assay: PE-ELISA on coated PD-L1

T1 sequence (Q9NZQ7 19-238 limits assumed): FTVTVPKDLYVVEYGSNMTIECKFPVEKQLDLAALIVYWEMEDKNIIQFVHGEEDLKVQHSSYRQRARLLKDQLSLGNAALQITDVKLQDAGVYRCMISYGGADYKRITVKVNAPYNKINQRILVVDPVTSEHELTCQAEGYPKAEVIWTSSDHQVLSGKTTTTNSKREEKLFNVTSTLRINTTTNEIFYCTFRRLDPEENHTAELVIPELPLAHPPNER

OD ratio (experimental group (A405 nm)/control group (A405 nm)) [1]: > 20
ELISA absorbance (A405 nm) [2]: 3.44 A405 nm
ELISA absorbance (A405 nm) [3]: 0.115 A405 nm
OD ratio (PD-L1/PD-L2) [4]: 29.9
B1: SEQ ID NO 6 (VHH)
VHH: QVQLQESGGGSVQAGETLRLSCTASGDTFDASGVGWFRQVSGNECDLVSSINRDGTTYYAPSVAGRFTMSQNNAKNTVYLQMNSLKPDDTAVYYCATDPAVGIVVRSTCRGPFGYWGQGTQVTVSS
notes: pMECS-expressed; also called anti-PD-L1 nanobody No. 6; VHH numbered 6

OD ratio (experimental group (A405 nm)/control group (A405 nm)) [1]: > 20
ELISA absorbance (A405 nm) [2]: 2.9 A405 nm
ELISA absorbance (A405 nm) [3]: 0.116 A405 nm
OD ratio (PD-L1/PD-L2) [4]: 25
B2: SEQ ID NO 11 (VHH)
VHH: B1 VHH with A31D, M69I, D98V, S107I
notes: pMECS-expressed; also called anti-PD-L1 nanobody No. 11; VHH numbered 11

OD ratio (experimental group (A405 nm)/control group (A405 nm)) [1]: > 20
B3: SEQ ID NO 71 (VHH)
VHH: QVQLQESGGGLVQPGGSLRLSCAASGFTFSSYDMSWVRQAPGKGIEWVSVINSGGSNTDYADSVKGRFTISRDNAKNTLYLQMNSLKTEDTAVYYCATAWMGYSDYLDGIARGQGTQVTVSS
notes: pMECS-expressed; also called VHH numbered 71

OD ratio (experimental group (A405 nm)/control group (A405 nm)) [1]: > 20
ELISA absorbance (A405 nm) [2]: 3.34 A405 nm
ELISA absorbance (A405 nm) [3]: 0.117 A405 nm
OD ratio (PD-L1/PD-L2) [4]: 28.6
B4: SEQ ID NO 10 (VHH)
VHH: QVQLQESGGGSVQAGGSLRLSCTAPGFTSKTCAMRWYRQAPGKEREFVSAISTVGTTTYADSVKGRFIISKDEAKDTVYLQINSLKPEDTAMYSCKTFACRHCIGQSCRTEPDYWGQGTQVTVSS
notes: pMECS-expressed; also called anti-PD-L1 nanobody No. 10; VHH numbered 10

OD ratio (experimental group (A405 nm)/control group (A405 nm)) [1]: > 20
ELISA absorbance (A405 nm) [2]: 3.56 A405 nm
ELISA absorbance (A405 nm) [3]: 0.131 A405 nm
OD ratio (PD-L1/PD-L2) [4]: 27.2
B5: SEQ ID NO 9 (VHH)
VHH: QVQLQESGGGSVQAGGSLRLSCAASGYTYSNDGMGWFRQIPGKEREGVAAISPTGRRTEYADSVQGRFTISRDNAKNMLSLQMNSLKPEDTGMYYCAREGSGSFSLQNSAVRSWGQGTQVTVSS
notes: pMECS-expressed; also called anti-PD-L1 nanobody No. 9; VHH numbered 9

binding result [5]: binds
B6: SEQ ID NO 139 (VHH)
VHH: QVQLQESGGGSVQAGGSLRLSCVASGYTNCRYDMSWYRQAPGKEREFVSSIDSEGVARHADSVKGRFGISQDNAKSTLYLQMNSLKPEDTAVYYCKTDYITCRFGSWSDSTWGQGTQVTVSS
notes: pMECS-expressed; also called VHH numbered 139

binding result [5]: binds
B7: SEQ ID NO 140 (VHH)
VHH: B6 VHH with V92M, T97M, T101R, D109E
notes: pMECS-expressed; also called VHH numbered 140

OD ratio (experimental group (A405 nm)/control group (A405 nm)) [1]: > 20
B8: SEQ ID NO 50 (VHH)
VHH: QVQLQESGGGLVQPGGSLRLSCIASGFTFSIMAMSWVRQAPGKGLEWVSTINSDGGKTYYADSVKGRFTISRDNAKNTLYLQLNSLRTEDMAMYYCRRCADIYCSGSGGWTGQGTQVTVSS
notes: pMECS-expressed; also called VHH numbered 50

OD ratio (experimental group (A405 nm)/control group (A405 nm)) [1]: > 20
B9: SEQ ID NO 79 (VHH)
VHH: QVQLQESGGGLVQPGGSLRLSCAASGLPFSIIAMSWVRQAPGKGIEWVSTINSGGGTTHYADSVKGRFTISRDNAKNTLYLQLNSLRTEDTAVYYCRRCADIYCSGSGGWTGLGTQVTVSS
notes: pMECS-expressed; also called VHH numbered 79

OD ratio (experimental group (A405 nm)/control group (A405 nm)) [1]: > 20
B10: SEQ ID NO 72 (VHH)
VHH: B9 VHH with A23E, I45L, G54D, V93M, A100T, L113Q
notes: pMECS-expressed; also called VHH numbered 72

OD ratio (experimental group (A405 nm)/control group (A405 nm)) [1]: > 20
B11: SEQ ID NO 73 (VHH)
VHH: B9 VHH with A23E, I45L, G54D, V93M, A100T, S107F, L113Q
notes: pMECS-expressed; also called VHH numbered 73

OD ratio (experimental group (A405 nm)/control group (A405 nm)) [1]: > 20
B12: SEQ ID NO 65 (VHH)
VHH: B8 VHH with I23A, M32L, V48I, S53N, D54S, K57T, Y59F, M91T, A100T, G106L
notes: pMECS-expressed; also called VHH numbered 65
